Measurements as given in article PMC10764958.

Biological target: SARS2-NP WT (bacterial) (SARS-CoV-2, UniProt P0DTC9 1-419)
Assay: MST; MST: PBS with 0.05% Tween, room temperature; […]
Details: protein: recombinant; tags: 2xStrep (C-term); chain copies: 2

B1: Cy5-RNA (SARS-CoV-2 RNA) (ssRNA)
RNA: CACUCGCUAUGUCGAUAACAACUUCUGUGGCCCUGAUGGCUACCCUCUUGAGUGCAUUAAAGA
Question: Does B1 bind?
Answer: binds
